Several values for one entry are separate records, joined by “and”; a condition that tells them apart may be missing. Equal values may be shown once. Non-standard residues stand in square brackets, D forms with d. No end group written: not given here. Tyr(3-NO2) = N[C@@H](Cc1ccc(O)c([N+](=O)[O-])c1)C(=O)O; 2Abz = Nc1ccccc1C(=O)O
Legend:
Assay type in all cases: biochemical
TS5-5 (ADAMTS-5) [1] = target: T1, TS5-5 (ADAMTS-5) (Homo sapiens, UniProt Q9UNA0); assay: Determination of kinetic parameters (kcat and Km) for substrate cleavage by TS5-5, inner-filter corrected
T1 construct: ADAMTS-5 (i.e. TS5-5, residues 264–555); FLAG; made in house; host or cells: HEK293 cells (previously transfected stocks)
T1 sequence (Q9UNA0 264-555): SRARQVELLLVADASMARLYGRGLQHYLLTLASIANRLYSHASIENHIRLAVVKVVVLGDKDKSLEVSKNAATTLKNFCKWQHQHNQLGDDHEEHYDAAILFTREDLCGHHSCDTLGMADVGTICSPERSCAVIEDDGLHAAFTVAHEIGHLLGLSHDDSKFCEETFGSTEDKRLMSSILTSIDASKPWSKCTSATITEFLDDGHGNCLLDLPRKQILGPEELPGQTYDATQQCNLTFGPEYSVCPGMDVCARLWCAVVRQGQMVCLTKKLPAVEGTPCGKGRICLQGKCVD
Description: A solution of Abz-TESE↓SRGAIY-Dpa-KK-NH2/3/26 (5 mM) or 19/23 (1 mM) in DMSO underwent a 2-fold serial dilution with freshly prepared TNC buffer containing 0.005% (v/v) Brij-35. This gave initial concentrations in the following range: 222.22 to 0.87 μM (Abz-TESE↓SRGAIY-Dpa-KK-NH2/3/23/26) and 177.78 to 1.39 μM (19). Eight substrate concentrations (180 μL) within these ranges (including outer numbers) were added to a 96-well black microplate in triplicate and incubated at 37 °C (20 min). TNC buffer with 0.005% (v/v) Brij-35 was added to substrate-only control wells in a single replicate (180 μL). TS5-5 proteinase was thawed from −80 or −20 °C, made up in TNC buffer with 0.005% (v/v) Brij-35 (300 nM) and added to substrate wells (20 μL). TNC buffer was added to substrate-only control wells (20 μL). Fluorescence intensity was measured at 37 °C for 1 h with readings every 20 s. The rate of substrate cleavage was determined at each substrate concentration and expressed as the mean ± SEM in μM s^–1. The subsequent data was fitted to the Michaelis–Menten eq 2: [drawing 2] 2 where v is the rate of the reaction, Vmax is the maximal rate of the reaction, Km is the Michaelis constant, and [S] is the substrate concentration. This equation enabled the Km value to be determined. The catalytic rate constant kcat was determined from eq 3: [drawing 3] 3 where [E] is the concentration of proteinase, and kcat and Vmax are as defined previously. These initial Km and kcat parameters were determined from n = 3–4 independent experiments with final values for these parameters reported after a correction for the inner-filter effect.
This was performed based on the protocol described in Liu et al.([40]) to correct for quenching of the released Abz fluorophore by uncleaved substrate. Two sets of initial substrate concentrations were prepared as described in the previous section. Both sets of substrate concentrations (180 μL) were added to a 96-well black microplate in triplicate. Two buffer-alone controls with TNC buffer containing 0.005% (v/v) Brij-35 (180 μL) were also added in triplicate. All solutions were incubated at 37 °C (20 min). Abz fluorophore (1 M) in DMSO was serially diluted to 1 mM in DMSO, before further dilution to 100 μM using TNC buffer containing 0.005% (v/v) Brij-35. TNC buffer containing 0.005% (v/v) Brij-35 (20 μL) was added to the first set of substrate concentrations as well as to the first buffer-alone control. Abz fluorophore (20 μL, 100 μM) was added to the second set of substrate concentrations as well as the second buffer-alone control. The end-point fluorescence intensity was measured at 37 °C using λex = 300 nm and λem = 430 nm. At each substrate concentration, […] to give the actual fluorescence of the Abz fluorophore (RFUAbz). These values were divided by RFUAbz at a substrate concentration of 0 μM to give the correction factor for each concentration. The rates for each substrate concentration described in the previous section were divided by their respective correction factors (Tables S6–S10) to deliver the inner-filter corrected kcat and Km values.

TS5-5 (ADAMTS-5) [2] = target: T1, TS5-5 (ADAMTS-5); assay: Rate of cleavage of 3 and 26 by TS5-5 at different substrate concentrations; conditions: TS5-5 57 nM, after 1 h, 37 °C
Description: To test whether active TS5-5 had been purified, three concentrations of proteinase were assayed. […] A substrate-only background control was also added in triplicate (180 μL). The resultant solutions were incubated at 37 °C (30 min). […] TNC buffer with 0.02% (v/v) Brij-35 (20 μL) was also added to background control wells. The change in RFU was measured at 37 °C for 1 h, with readings every 20 s. Following subtraction of background fluorescence intensity, linear regression analysis of the linear part of each curve was used to determine the cleavage rate, which was expressed as the mean ± SEM in RFU s^–1. For cases where a single concentration of TS5-5 or TS4-4 was assayed, the same procedure was used but with 0.005% (v/v) Brij-35 and using the 5-FAM-AE↓LQGRPISIAK-TAMRA substrate for TS4-4 (0.56 μM). To convert cleavage rates to nM s^–1 nM^–1, the rate in RFU s^–1 was divided by the final concentration of proteinase (nM), then divided by the gradient of the calibration curve for Abz or 5-FAM (expressed in RFU nM^–1).
This was carried out according to the procedure described for activity studies of ADAMTSs with a single concentration of proteinase, except that a range of substrate concentrations was used for 3 and 26 (20 to 0.63 μM). Additionally, control wells for each substrate concentration were used in single replicate. The final concentration of TS5-5 was 57 nM.

TS5-5 (ADAMTS-5) [3] = target: T1, TS5-5 (ADAMTS-5); assay: Sensitivity studies with TS5-5; conditions: 37 °C; for ΔRFU after 20 h: single experiment in triplicate; for lowest ADAMTS-5 concentration at which activity is detected: 5 μM substrate, experiments performed for ∼20 h
Description: Abz-TESE↓SRGAIY-Dpa-KK-NH2, library parent peptide 3 and hit peptide 26 (5 mM) were each diluted to two concentrations (5.56 μM and 2.78 μM) in freshly prepared TNC buffer with 0.005% (v/v) Brij-35. The two concentrations for each substrate (90 μL) were added to a 96-well black microplate in triplicate. A substrate-only background control was also added in triplicate (90 μL). The resultant solutions were incubated at 37 °C (20 min). TS5-5 proteinase was thawed from −20 °C and made up at the following concentrations in TNC buffer with 0.005% (v/v) Brij-35:10, 5, 2.5, and 1.25 nM. Each concentration of proteinase was added to substrate wells (10 μL), with buffer added to substrate-only control wells (10 μL). The relative fluorescence intensity was measured at 37 °C for 24 h, with readings every 2 min.

[4] = TS5-5, TNC buffer with 0.005% (v/v) Brij-35, 37 °C, corrected for inner filter effect, mean ± SEM from 3–4 independent experiments in triplicate
[5] = supplementary CSV copy of Table 3, TS5-5, 37 °C
[6] = TS5-5, TNC buffer with 0.005% (v/v) Brij-35, 37 °C, corrected for inner filter effect, mean ± SEM from 3–4 independent experiments in triplicate, listed as current substrate

| Substance | decrease in Km compared to the current substrate (TS5-5 (ADAMTS-5) [1]; TS5-5) | higher catalytic efficiency (kcat/Km) compared to the current substrate (TS5-5 (ADAMTS-5) [1]; TS5-5) | lower catalytic rate constant (kcat) compared to the current substrate (TS5-5 (ADAMTS-5) [1]; TS5-5) | Km (TS5-5 (ADAMTS-5) [1]; [4]) | kcat (TS5-5 (ADAMTS-5) [1]; [4]) | kcat/Km (TS5-5 (ADAMTS-5) [1]; [4]) | kcat (TS5-5 (ADAMTS-5) [1]; [5]) | lowest concentration of substrate detectibly cleaved by TS5-5 (ΔRFU ≥ 300) (TS5-5 (ADAMTS-5) [2]) | ΔRFU after 20 h (TS5-5 (ADAMTS-5) [3]; 0.25 nM TS5-5, substrate 5 μM) | ΔRFU after 20 h (TS5-5 (ADAMTS-5) [3]; 0.5 nM TS5-5, substrate 5 μM) | ΔRFU after 20 h (TS5-5 (ADAMTS-5) [3]; 1 nM TS5-5, substrate 5 μM) | lowest ADAMTS-5 concentration at which activity is detected (TS5-5 (ADAMTS-5) [3]) | kcat (TS5-5 (ADAMTS-5) [1]; [6]) | kcat/Km (TS5-5 (ADAMTS-5) [1]; [6]) |
| --- | --- | --- | --- | --- | --- | --- | --- | --- | --- | --- | --- | --- | --- | --- |
| KY(NO2)TESESRGK(Abz)IYYKKG (K[Tyr(3-NO2)]TESESRGK(Abz)IYYKKG) [Compound 3] | ~4 fold | ~2 fold | ~2 fold | 29.5 ± 1.7 µM | 1.87 s⁻¹ and 1.87 ± 0.15 s⁻¹ | 63200 M⁻¹ s⁻¹ and 63200 ± 1840 M⁻¹ s⁻¹ | 1.87 ± 0.15 s⁻¹ | 2.5 µM | > 30 | > 100 | > 100 | 0.25 nM |  |  |
| KY(NO2)SENESRGK(Abz)IYYKKG (K[Tyr(3-NO2)]SENESRGK(2Abz)IYYKKG) [Compound 26] | ~2 fold | ~1.5 fold |  | 76.9 ± 6.4 µM | 3.32 s⁻¹ and 3.32 ± 0.31 s⁻¹ | 44400 M⁻¹ s⁻¹ and 44400 ± 6690 M⁻¹ s⁻¹ | 3.32 ± 0.31 s⁻¹ | 5 µM | > 30 | > 100 | > 100 | 0.25 nM |  |  |
| Abz-TESE↓SRGAIY-Dpa-KK-NH2 [current, ortho-aminobenzoyl(Abz)-TESE↓SRGAIY-N-3-[2,4-dinitrophenyl]-L-2,3-diaminopropionyl(Dpa)-KK-NH2, reference compound] |  |  |  | 125 ± 5 µM | 3.61 ± 0.31 s⁻¹ | 29100 ± 3090 M⁻¹ s⁻¹ | 3.61 ± 0.31 s⁻¹ |  | no longer able to detect TS5-5 activity above background fluorescence | 59 | > 100 |  | 3.61 s⁻¹ | 29100 M⁻¹ s⁻¹ |

— article PMC10009750, “Development of Selective ADAMTS-5 Peptide Substrates to Monitor Proteinase Activity” (Journal of Medicinal Chemistry, 2023)
